Test results as given in article PMC4635569.
Like-named read-outs stand apart in the source and are kept apart here.

Tests used:
[1] = target: plasma-derived human complement factor H (human) (UniProt P08603)
[2] = target: human C3b (human) (UniProt P01024); assay: SPR; C3b (~250 RU) or C3d (~70 RU) amine coupled to adjacent flow cells of a Biacore C1 chip; FH preincubated with or without a 2-fold molar excess of PspCN injected (90 s, 30 μl/min, 400 s dissociation); 1:1 binding model
[3] = target: human C3d (human) (UniProt P01024); assay: as above
[4] = target: human C3b (human) (UniProt P01024); assay: as above; remark: listed apart in the source
[5] = target: C3d C3d (Homo sapiens) (UniProt P01024); conditions: cited from earlier work
[6] = target: C3b C3b (Homo sapiens) (UniProt P01024); conditions: cited from earlier work
[7] = target: His6-SUMO-tagged D39 PspC residues 37-140 (Streptococcus pneumoniae D39); assay: SPR; PspC-derived proteins immobilised via N-terminal His6-SUMO tags on a Ni2+-loaded Biacore NTA chip (~150 RU); FH, rFH or rFH fragments flowed over (180 s, 100 μl/min, 1500 s dissociation); 25°C; 10 mM HEPES, 150 mM NaCl, 0.05% P20, pH 7.4, 50 μM EDTA; 1:1 binding model; equilibrium method for FH 8–9
[8] = target: (D39)PspCN, D39 PspC residues 37-140 after removal of the His6-SUMO tag (Streptococcus pneumoniae D39); assay: SEC-MALS; 4.6 μM in PBS of FH, PspCN or a 1:1 complex; Superose12 10/300 GL column, 0.4 ml/min

Sequence of human C3d (human) (P01024 1002-1303): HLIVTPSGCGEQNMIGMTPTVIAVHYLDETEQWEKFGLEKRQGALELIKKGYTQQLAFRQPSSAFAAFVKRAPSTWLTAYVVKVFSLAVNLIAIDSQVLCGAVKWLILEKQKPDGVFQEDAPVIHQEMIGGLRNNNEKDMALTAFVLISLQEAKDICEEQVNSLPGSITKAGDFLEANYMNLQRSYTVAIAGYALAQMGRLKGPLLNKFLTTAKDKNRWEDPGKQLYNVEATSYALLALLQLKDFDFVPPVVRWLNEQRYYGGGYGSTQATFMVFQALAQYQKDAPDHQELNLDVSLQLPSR
Sequence of human C3b (human) (P01024 23-667, chain 1 of 2): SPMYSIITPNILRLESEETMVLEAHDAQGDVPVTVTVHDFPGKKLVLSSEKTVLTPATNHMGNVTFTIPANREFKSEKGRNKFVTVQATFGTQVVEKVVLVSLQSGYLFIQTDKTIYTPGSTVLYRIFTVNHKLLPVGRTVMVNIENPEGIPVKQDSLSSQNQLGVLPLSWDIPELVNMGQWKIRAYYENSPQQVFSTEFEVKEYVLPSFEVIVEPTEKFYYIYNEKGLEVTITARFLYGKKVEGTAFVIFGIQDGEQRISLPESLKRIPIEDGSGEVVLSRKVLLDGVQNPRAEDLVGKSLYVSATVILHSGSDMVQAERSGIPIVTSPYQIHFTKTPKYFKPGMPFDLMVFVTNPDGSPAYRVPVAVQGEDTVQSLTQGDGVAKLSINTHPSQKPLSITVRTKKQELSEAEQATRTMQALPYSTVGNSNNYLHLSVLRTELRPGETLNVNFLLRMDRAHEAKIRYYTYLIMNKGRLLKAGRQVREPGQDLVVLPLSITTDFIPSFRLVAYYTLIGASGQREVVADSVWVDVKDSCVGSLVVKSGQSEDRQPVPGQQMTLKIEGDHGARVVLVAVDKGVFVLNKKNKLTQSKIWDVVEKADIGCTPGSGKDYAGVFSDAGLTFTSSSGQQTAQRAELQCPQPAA
Sequence of human C3b (human) (P01024 749-1663, chain 2 of 2): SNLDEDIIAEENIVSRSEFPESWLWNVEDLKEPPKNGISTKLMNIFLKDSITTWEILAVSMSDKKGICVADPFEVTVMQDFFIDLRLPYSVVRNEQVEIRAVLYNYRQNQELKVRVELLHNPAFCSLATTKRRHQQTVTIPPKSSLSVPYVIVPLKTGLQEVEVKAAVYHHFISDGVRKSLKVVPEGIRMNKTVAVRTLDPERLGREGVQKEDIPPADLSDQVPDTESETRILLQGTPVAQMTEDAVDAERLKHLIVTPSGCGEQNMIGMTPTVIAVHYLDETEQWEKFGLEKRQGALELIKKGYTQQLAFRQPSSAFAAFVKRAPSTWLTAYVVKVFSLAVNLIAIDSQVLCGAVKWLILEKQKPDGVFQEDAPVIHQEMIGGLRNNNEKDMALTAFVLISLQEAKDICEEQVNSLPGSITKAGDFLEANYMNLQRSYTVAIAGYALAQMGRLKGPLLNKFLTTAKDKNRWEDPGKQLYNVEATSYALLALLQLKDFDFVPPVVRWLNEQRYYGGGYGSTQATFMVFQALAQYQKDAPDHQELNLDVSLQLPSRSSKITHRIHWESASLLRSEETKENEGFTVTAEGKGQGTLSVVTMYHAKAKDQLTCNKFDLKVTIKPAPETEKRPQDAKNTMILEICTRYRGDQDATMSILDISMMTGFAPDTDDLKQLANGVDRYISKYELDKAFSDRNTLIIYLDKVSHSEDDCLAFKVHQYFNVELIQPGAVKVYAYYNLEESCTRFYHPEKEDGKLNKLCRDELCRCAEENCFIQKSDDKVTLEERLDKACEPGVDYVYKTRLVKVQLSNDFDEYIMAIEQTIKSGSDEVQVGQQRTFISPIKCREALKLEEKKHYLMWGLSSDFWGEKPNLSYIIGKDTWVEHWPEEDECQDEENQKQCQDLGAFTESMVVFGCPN
Sequence of C3d C3d (Homo sapiens) (P01024 1002-1303): as the sequence (P01024 1002-1303) above
Sequence of C3b C3b (Homo sapiens) (P01024 566-670): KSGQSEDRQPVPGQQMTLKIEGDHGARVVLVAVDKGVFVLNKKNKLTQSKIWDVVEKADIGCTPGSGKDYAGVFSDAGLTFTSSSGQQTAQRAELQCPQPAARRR

(D39)PspCN, D39 PspC residues 37-140 after removal of the His6-SUMO tag (domain or fragment)
inhibition of acidified-serum lysis of PNH-like (AET-treated) human erythrocytes by increasing concentrations of (D39)PspCN; FH of the serum [1]: 28 nM

(D39)PspCN:FH complex (plasma-derived FH) (from UniProt P08603 19-1231)
Kd [2]: 160 nM | ratio of KD values for FH versus FH-PspCN [2]: 2.04 | Kd [3]: 2300 nM

(D39)PspCN:FH(D1119G) complex (from UniProt P08603 19-1231)
Kd [2]: 320 nM | Kd [4]: 330 nM

(D39)PspCN:rFH complex (from UniProt P08603 19-1231)
Kd [2]: 280 nM | Kd [3]: 2200 nM

(Tigr4)PspC_(37–179):FH complex (from UniProt P08603 19-1231)
Kd [2]: 280 nM | Kd [3]: 1200 nM

Complement factor H CCP 19-20 (from UniProt P08603)
Kd [5]: 2000 nM | Kd [6]: 2000 nM

FH 8–9 (domain or fragment)
Kd [7]: 30 nM

FH 8–15 (domain or fragment)
Kd [7]: 1 nM

plasma-derived human complement factor H (from UniProt P08603 19-1231) (natural protein)
stoichiometry N [8]: 1 FH:PspCN | dissociation over 30 min (off-rate) (% over 30 min) [7]: < 0.2
